Data taken from paper PMC10172135.

How the values were obtained:
[1] = molecular target: FRP-like protein (FRPL) from Pseudomonas borbori (Pseudomonas borbori); test: native MS; 4 µM (monomer) in 200 mM ammonium acetate pH 6.8, Q Exactive, positive ion mode
[2] = molecular target: orange carotenoid protein OCP1 from Synechocystis sp. PCC 6803 (Synechocystis sp. PCC 6803)

Row | stoichiometry N [1] | acceleration of OCP1’s recovery from photoconversion (20 °C, equimolar ratio of OCP1 to FRPL), compared to OCP1 alone [2] [%] | Substance
1 | 2 | – | FRP-like protein (FRPL) from Pseudomonas borbori (natural protein)
2 | – | 93 | FRPL from a delta-proteobacterium of the Desulfobacteraceae family (natural protein)
